# According to IntAct's records for PubMed 12551906:
# B1: Dolichyl-phosphate-mannose--protein mannosyltransferase 1 (Saccharomyces cerevisiae), P33775 (parent)
# chain: MSEEKTYKRVEQDDPVPELDIKQGPVRPFIVTDPSAELASLRTMVTLKEKLLVACLAVFTAVIRLHGLAWPDSVVFDEVHFGGFASQYIRGTYFMDVHPPLAKMLYAGVASLGGFQGDFDFENIGDSFPSTTPYVLMRFFSASLGALTVILMYMTLRYSGVRMWVALMSAICFAVENSYVTISRYILLDAPLMFFIAAAVYSFKKYEMYPANSLNAYKSLLATGIALGMASSSKWVGLFTVTWVGLLCIWRLWFMIGDLTKSSKSIFKVAFAKLAFLLGVPFALYLVFFYIHFQSLTLDGDGASFFSPEFRSTLKNNKIPQNVVADVGIGSIISLRHLSTMGGYLHSHSHNYPAGSEQQQSTLYPHMDANNDWLLELYNAPGESLTTFQNLTDGTKVRLFHTVTRCRLHSHDHKPPVSESSDWQKEVSCYGYSGFDGDANDDWVVEIDKKNSAPGVAQERVIALDTKFRLRHAMTGCYLFSHEVKLPAWGFEQQEVTCASSGRHDLTLWYVENNSNPLLPEDTKRISYKPASFISKFIESHKKMWHINKNLVEPHVYESQPTSWPFLLRGISYWGENNRNVYLLGNAIVWWAVTAFIGIFGLIVITELFSWQLGKPILKDSKVVNFHVQVIHYLLGFAVHYAPSFLMQRQMFLHHYLPAYYFGILALGHALDIIVSYVFRSKRQMGYAVVITFLAASVYFFKSFSPIIYGTPWTQELCQKSQWLSGWDYNCNTYFSSLEEYKNQTLTKRESQPAATSTVEEITIEGDGPSYEDLMNEDGKKIFKDTEGNELDPEVVKKMLEEEGANILKVEKRAVLE
# partner: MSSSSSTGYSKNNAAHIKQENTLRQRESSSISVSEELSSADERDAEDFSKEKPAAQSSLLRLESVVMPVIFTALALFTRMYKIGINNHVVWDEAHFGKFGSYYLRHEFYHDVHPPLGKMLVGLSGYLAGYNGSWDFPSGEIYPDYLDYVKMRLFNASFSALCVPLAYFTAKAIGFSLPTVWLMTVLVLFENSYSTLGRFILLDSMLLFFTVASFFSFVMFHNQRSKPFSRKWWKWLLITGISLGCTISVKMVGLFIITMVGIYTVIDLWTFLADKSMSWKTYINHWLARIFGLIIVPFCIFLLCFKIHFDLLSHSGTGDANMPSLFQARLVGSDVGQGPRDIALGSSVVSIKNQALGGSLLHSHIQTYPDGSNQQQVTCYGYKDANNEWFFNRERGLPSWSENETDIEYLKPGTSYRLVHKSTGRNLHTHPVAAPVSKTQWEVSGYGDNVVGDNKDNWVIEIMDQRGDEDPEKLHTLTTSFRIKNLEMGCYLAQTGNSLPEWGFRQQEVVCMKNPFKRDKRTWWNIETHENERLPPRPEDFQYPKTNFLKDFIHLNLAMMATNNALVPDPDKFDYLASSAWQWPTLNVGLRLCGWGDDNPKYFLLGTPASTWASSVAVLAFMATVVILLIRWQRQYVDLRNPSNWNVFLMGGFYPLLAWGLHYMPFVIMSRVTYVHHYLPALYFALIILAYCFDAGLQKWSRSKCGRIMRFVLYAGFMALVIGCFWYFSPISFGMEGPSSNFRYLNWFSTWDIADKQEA
# Variants of: B1
# Conditions: with pmt2_yeast PMT2, P31382
row,effect of a mutation on the interaction,Variant
1,disrupting interaction strength,R138A
2,decreasing interaction strength,R138K
